According to patent publication US20220275333A1 (FATE THERAPEUTICS, published 2022):

Target: T1, human MICA (on target cells: MICA over-expressing P815, MICA+ Nalm6, endogenous on A2058, K562, CaSki) (human, UniProt Q29983 24-383)
T1 sequence (looked up): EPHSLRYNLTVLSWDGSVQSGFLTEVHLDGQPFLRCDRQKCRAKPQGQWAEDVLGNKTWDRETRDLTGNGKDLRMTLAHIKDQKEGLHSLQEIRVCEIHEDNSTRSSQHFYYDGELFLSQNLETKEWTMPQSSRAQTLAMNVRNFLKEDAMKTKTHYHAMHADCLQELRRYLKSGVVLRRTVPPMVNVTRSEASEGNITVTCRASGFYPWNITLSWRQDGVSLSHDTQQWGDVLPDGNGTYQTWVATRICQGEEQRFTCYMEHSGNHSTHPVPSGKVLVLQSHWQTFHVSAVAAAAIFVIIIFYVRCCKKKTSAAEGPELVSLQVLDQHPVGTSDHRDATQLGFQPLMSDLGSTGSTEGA
Assay: cell-based or functional assay

B1: MICA/B CAR (anti-MICA/B chimeric antigen receptor; version not stated for the experiment) (other)
VH: QIQLVQSGPELKKPGETVKVSCKASGYMFTNYAMNWVKQAPEKGLKWMGWINTHTGDPTYADDFKGRIAFSLETSASTAYLQINNLKNEDTATYFCVRTYGNYAMDYWGQGTSVTVSS
VL: DIQMTQTTSSLSASLGDRVTISCSASQDISNYLNWYQQKPDGTVKLLIYDTSILHLGVPSRFSGSGSGTDYSLTISNLEPEDIATYYCQQYSKFPRTFGGGTTLEIK
EC50 of cytotoxicity (% Caspase 3/7+ target cells) of MICA/B CAR+ T cells on MICA+ Nalm6 cells over E:T ratios, 4 hours: ~1.9 E:T ratio | EC50 of cytotoxicity (% Caspase 3/7+ target cells) of MICA/B CAR+ iNK cells on P815 MICA+ cells over E:T ratios, 4 hours: ~5.2 E:T ratio
